Results on nine molecules are retold here after patent US6358687, “Methods for monitoring the binding of A1/UP1 to single-stranded nucleic acid sequences, and to measure the effect of this binding on telomere extension and protection” (Telogene Inc.).

The target of series [1] is T1, GST-UP1 (hnRNP A1 fragment) (UniProt P49312 P49312:1-196). The experiment in a line: EMSA; 0.2-4.0 uM protein, 0.5 uM TS10; 2.5 mM MgCl2, 75 mM KCl, 30 C. The note with it: tags: GST; label: 5'-32P. How it is done: (§1) GST-UP1 (G-UP1) at concentrations of 0, 0.2, 0.5, 1.0, 2.0 and 4.0 µM, or UP1 at concentrations of 0, 1.0, 2.0 and 4.0 µM, were incubated with TS10 (0.5 µM). Complexes were fractionated on 5% non-denaturating polyacrylamide gels. The position of complexes and free TS10 is shown.
T1 sequence (P49312 1-196, one chain of several): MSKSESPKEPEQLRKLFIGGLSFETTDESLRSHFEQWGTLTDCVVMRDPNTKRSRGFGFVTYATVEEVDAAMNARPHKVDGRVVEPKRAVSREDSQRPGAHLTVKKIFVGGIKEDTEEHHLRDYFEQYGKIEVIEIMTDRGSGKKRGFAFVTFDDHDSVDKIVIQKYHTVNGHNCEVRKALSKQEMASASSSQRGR

Series [2] concerns the target T2, UP1 (hnRNP A1 fragment) (UniProt P49312 P49312:1-196). Kind of series: EMSA; 1-4 uM protein, 0.5 uM TS10. The note with it: tags: GST removed by thrombin; label: 5'-32P. The method, then:
as §1
Background: Mobility shift assays separate free from complexed probe on a gel.

In series [3] the target is T2, UP1 (hnRNP A1 fragment). The experiment in a line: EMSA; not shown. To be noted: tags: GST removed by thrombin.
For series [4], the target named is T1, GST-UP1 (hnRNP A1 fragment). The experiment in a line: EMSA; not shown. To be noted: tags: GST; label: 5'-32P. How it is done:
(§2) Gel-shift assays were performed using single-stranded or partially double-stranded duplex substrates. A, the concentrations of GST-UP1 (G-UP1) used for each set of DNA substrate were 0.25, 0.5, 1.0 and 0 µM. Duplex formation was accomplished by incubating an equimolar amount of unlabeled Tb with labeled b' (or unlabeled aT with labeled a'). The partial duplex substrates migrate slightly above the position of labeled Tb and aT. […] B, gel shift assays were accomplished in the presence of an excess of cold oligonucleotides as competitor. Labeled Tb or aT (0.1 µM) was used in combination with cold Tb or aT (0, 0.625, 1.25, 2.5 and 5.0 µM) and G-UP1 (0.3 µM). (Open bar) vertebrate telomeric repeats; (solid bar) nontelomeric DNA. The asterisk (*) indicates which oligonucleotide was ^32P-labeled at its 5' end. Complexes were fractionated on 5% non-denaturating polyacrylamide gels. The position of the free and complexed oligonucleotides is shown.

Series [5] has the same target. Kind of series: EMSA; 0.25-1.0 uM protein. To be noted: tags: GST; label: 5'-32P. The method, then:
as §2

Series [6] has the same target. The experiment in a line: EMSA; legend titled binding to single-stranded telomeric extensions in partial duplex. To be noted: tags: GST. The method, then:
as §2

T2 sequence (P49312 1-196, one chain of several): as above

B1: TS10 (ssDNA)
DNA: TTAGGGTTAGGGTTAGGGTTAGGGTTAGGGTTAGGGTTAGGGTTAGGGTTAGGGTTAGGG
In the case of B1, the binding result in series [1] and in series [2] was “binds” throughout.
For GGGGGTGGGAGCAGGGGAGG (ssDNA) [Ne4], the binding result in series [3] is given as “no binding”.
In the case of CCAGGACACTAGGCC (ssDNA) [a'], in series [4], the binding result is reported as “no binding”.
Still for that read-out and setting: in the case of CCGGATCACAGGACC (ssDNA) [b'] it was “no binding”.
For TAGGGTTAGGGTTAGGGTGGTCCTGTGATCCGG (ssDNA) [Tb], the binding result in series [5] is reported as “binds”.

B2: Tb/b' partial duplex (mixed)
DNA 1: TAGGGTTAGGGTTAGGGTGGTCCTGTGATCCGG
DNA 2: CCGGATCACAGGACC
B2: the binding result in series [6] (label: 5'-32P on b', 5' single-stranded telomeric overhang) is “binds”.
As for GGTTAGGGTTAGGGTTAG (ssDNA) [Tel2], the binding result in series [3] is listed as “binds”.
Take GGCCTAGTGTCCTGGTAGGGTTAGGGTTAGGGT (ssDNA) [aT]: the binding result in series [5] is recorded as “binds”.

B3: aT/a' partial duplex (mixed)
DNA 1: GGCCTAGTGTCCTGGTAGGGTTAGGGTTAGGGT
DNA 2: CCAGGACACTAGGCC
Consider B3, for which the binding result in series [6] (label: 5'-32P on a', 3' single-stranded telomeric overhang) is listed as “binds”.
